Publication PMC5640589

Test system: T1, His6-SACE_3446B (Saccharopolyspora erythraea A226), ORF:3b7da887
T1 sequence: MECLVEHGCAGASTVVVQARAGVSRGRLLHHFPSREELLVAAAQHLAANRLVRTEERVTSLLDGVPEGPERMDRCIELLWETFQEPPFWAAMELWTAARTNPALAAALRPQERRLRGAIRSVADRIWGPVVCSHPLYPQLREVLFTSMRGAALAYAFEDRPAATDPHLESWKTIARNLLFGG
Assay: EMSA
Conditions: 10 mM Tris pH 7.5, 5 mM MgCl2, 50 mM EDTA ([…]

Sequence | binding
GCGAGTGTCCGTTCGAGTGGCGGCTTGCGCCCGATGCTAGTCGCGGTTGATCGGCGATCGCAGGTGCACGCGGTCGATCTTGACGGCTGGCGAGAGGTGCGGGGAGGATCTGACCGACGCGGTCCACACGTGGCACCGCGATGCTGTTGTGGGCTGGACAATCGTGCCGGTTGGTAGGATCCAGCG (double strand) [ermE promoter] | no binding
GCGTCCCCCTACTCGACGACCACGCAATGGGCGAACAATATAGGAAGGATCAAGAGGTTGACATCGCCTCGTCGAGCCAACGAACCTGTGAACATCTGCATGTTGACAAGATCAACGGCGGCTACCTACTGTGGTGGCCCAGTGACGGGTTGCCGCACATCGCGCTGGGGAGATTCTTTGAATTTCGCCCGTAGCACCGACCTGGAAAGCGAGCAAATGCTCCG (double strand) [eryAI promoter] | no binding
